Results on one molecule are retold here after patent US20040191910, “Genes encoding plant transcription factors” (International Research Center for Agricultural Sciences, published 2004).

For this data set, the target named is OsDREB2A (Oryza sativa, UniProt A2WL19 SEQ:1-163). The data set is described as follows: EMSA; room temperature 20 min, 5% PAGE 0.25x TBE. To be noted: tags: N-terminal GST (pGEX-4T-1), cDNA nt 334-822; label: 32P. How it is done: The E. coli into which the protein had been induced was suspended in 18 ml of buffer (10 mM Tris-HCl, pH 8.0, 0.1 mM EDTA, 5 mM MgCl₂, 400 mM NaCl, 5% glycerol, 0.1 mM phenylmethylsulfonyl fluoride, 0.1 mM dithiothreitol). Then, 1% Triton X-100 and 1 mM EDTA were added thereto. After the cells were disrupted by sonication, the disrupted material was centrifuged at 20,000 g for 1 hour. Then, the protein was purified from the supernatant using glutathione-Sepharose (Pharmacia). The resultant fusion protein was incubated at room temperature for 20 minutes using the DRE sequence-containing 75 bp DNA fragment (SEQ ID NO: 16) labeled with ³²P as a probe. This mixture was electrophoresed using 5% polyacrylamide containing 0.25×Tris-borate-EDTA at 120 V for 90 minutes. As a result of this gel shift assay, those bands which migrated to the back were detected. When the DNA fragment containing the mutated DRE sequence was used as a probe, such bands were not detected. Thus, it became evident that OsDREB1A and OsDREB2A proteins specifically bind to the DRE sequence (FIG. 4).
OsDREB2A, sequence (A2WL19 1-163): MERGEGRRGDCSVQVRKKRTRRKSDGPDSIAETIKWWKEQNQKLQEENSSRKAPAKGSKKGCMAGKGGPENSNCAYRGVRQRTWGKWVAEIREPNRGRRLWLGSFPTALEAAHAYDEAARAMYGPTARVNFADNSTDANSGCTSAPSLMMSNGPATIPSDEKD

B1: DRE 75 bp fragment of rd29A promoter (dsDNA)
DNA 1: ACATCAGTTTGAAAGAAAAGGGAAAAAAAGAAAAAATAAATAAAAGATATACTACCGACATGAGTTCCAAAAAGC
DNA 2: GCTTTTTGGAACTCATGTCGGTAGTATATCTTTTATTTATTTTTTCTTTTTTTCCCTTTTCTTTCAAACTGATGT
For B1, the binding result is on record as “binds”.
